Target: di-nucleosome of X. laevis histone octamers on two Widom 601 sequences (unmodified) (X. laevis)
Assay: cryo-EM structure

DNMT3A2/3B3 hetero-tetramer (from UniProt Q9UBC3-3 1-770) (complex)
stoichiometry N (hetero-tetramers per di-nucleosome): 2

Reference: article doi:10.1101/2024.12.19.629503
